Data on 1 molecule can be found in patent US20240209029A1, “ADIPONECTIN GLYCOPEPTIDES AND COMPOSITIONS AND METHODS OF USE THEREOF” (The University of Hong Kong, priority 2021, published 2024).

The term EC50 denotes the concentration giving half of the maximal effect.

For this experiment, the system named is MDA-MB-231 cells. In words: Cancer cell proliferative assay (anti-proliferative activity, manual cell counting). The format is cell-based, human. How it is done: FIGS. 3A-3B are bar graphs showing the Emax (FIG. 3A) and EC50 (FIG. 3B) of adiponectin or peptides with no glycans (hAdn-WM), or mono-, di-, tri- and tetra-glycans. The glyACD and adiponectin elicit synergistic anti-proliferative activity in human MDA-MB-231 cells. After serum starvation for 24 hours, MDA-MB-231 cells were treated with different concentrations of hAdn-WM, glyACD, full-length human adiponectin, or their combinations. After incubation for another 24 hours, cells were harvested for manual counting. FIG. 3C is a graph showing the inhibition rate on MDA-MB-231 cells of the indicated peptides. MDA-MB-231 cells were treated with different concentrations of adiponectin in the absence or presence of low (2.5 μg/ml) or high (20 μg/ml) doses of hAdn-WM or hAdn-WM656877101. FIG. 3D is a heatmap showing the percentage inhibition on cell growth. MDA-MB-231 cells were treated with 0, 0.22, 0.33, 0.49, 0.74, 1.11, 1.67, 2.5 μg/ml adiponectin in combination with 0, 0.3125, 0.625, 1.25, 2.5, 5, 10, 20 μg/ml hAdn-WM or hAdn-WM656877101. The percentage inhibition on cell growth was calculated and indicated by different intensity of the blue color. Data are presented as mean±SEM (n=6). *, P<0.05 vs full-length human adiponectin; ♦, P<0.05 vs peptide with no glycans (hAdn-WM); ▴, P<0.05 vs peptide with tetra-glycans (hAdn-WM656877101).
MDA-MB-231 cells were cultured in DMEM supplemented with 10% FBS and 1% penicillin-streptomycin-fungisone at 37° C. and under 5% CO2 95% humidified air. After harvesting, cells were seeded at a density of 3000 cells per well in 96-well plates and then cultured for 24 hours. After fasting in DMEM with 0.5% FBS for 24 hours, cells were subsequently stimulated with 2.5% FBS in the presence of peptides, human adiponectin or other drugs. The viable cell numbers at 24 hours at different doses were manually counted by mixing with trypan blue dye for analysis. The maximum inhibition rate (Emax) and half maximal effective concentration (EC50) were used to evaluate the anti-tumor activity of peptides and adiponectin. […]

Setting [1] is: 24 hours incubation, viable cells manually counted.

B1: hAdiponectin: full-length human adiponectin, circulating glycoprotein hormone of 244 amino acids (SEQ ID NO:1) (protein, listed as Homo sapiens)
chain: MLLLGAVLLLLALPGHDQETTTQGPGVLLPLPKGACTGWMAGIPGHPGHNGAPGRDGRDGTPGEKGEKGDPGLIGPKGDIGETGVPGAEGPRGFPGIQGRKGEPGEGAYVYRSAFSVGLETYVTIPNMPIRFTKIFYNQQNHYDGSTGKFHCNIPGLYYFAYHITVYMKDVKVSLFKKDKAMLFTYDQYQENNVDQASGSVLLHLEVGDQVWLQVYGEGERNGLYADNDNDSTFTGFLLYHDTN
Take B1: under setting [1], the “EC50” value is 0.33 ± 0.11 µg/mL and the “Emax (%) maximum inhibition rate” value was determined as 69.3 ± 3.34%. Moreover, the “Emax of human adiponectin” value (adiponectin alone (absence of peptide), FIG. 3C) is on record as 66.7±4.29%.
